Data as given in the supplement of paper PMC11316812.
± gives the standard deviation of the averaged measurements.

Columns and labels:
hTERT-HMEC = experiment: percentage of EdU-negative (G0-arrested) nuclei per well, 72 h; higher = more G0 arrest; details: reference: sequence is the full UniProt precursor, the tested protein was the secreted form or ectodomain
MCF7 = experiment: as above; details: reference: sequence is the full UniProt precursor, the tested protein was the secreted form or ectodomain
[1] = protein concentration 0.03125 µM
[2] = protein concentration 0.3125 µM
[3] = protein concentration 0.0225 µM
[4] = protein concentration 0.02102 µM
[5] = protein concentration 0.2102 µM
[6] = protein concentration 0.0055 µM
[7] = protein concentration 0.010965 µM
[8] = protein concentration 0.10965 µM
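Further: secreted proteins added to cultured cells, EdU pulse at the end, nuclei found by Hoechst imaging, EdU status from nuclear versus surrounding ring intensity ratio, PBS as neutral control.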

Sequence | percentage of EdU-negative (hTERT-HMEC; [3]) [%] | percentage of EdU-negative (hTERT-HMEC; protein concentration 0.225 µM) [%] | percentage of EdU-negative (MCF7; [3]) [%] | percentage of EdU-negative (MCF7; protein concentration 0.225 µM) [%] | further results
MRVLLAALGLLFLGALRAFPQDRPFEDTCHGNPSHYYDKAVRRCCYRCPMGLFPTQQCPQRPTDCRKQCEPDYYLDEADRCTACVTCSRDDLVEKTPCAWNSSRVCECRPGMFCSTSAVNSCARCFFHSVCPAGMIVKFPGTAQKNTVCEPASPGVSPACASPENCKEPSSGTIPQAKPTPVSPATSSASTMPVRGGTRLAQEAASKLTRAPDSPSSVGRPSSDPGLSPTQPCPEGSGDCRKQCEPDYYLDEAGRCTACVSCSRDDLVEKTPCAWNSSRTCECRPGMICATSATNSCARCVPYPICAAETVTKPQDMAEKDTTFEAPPLGTQPDCNPTPENGEAPASTSPTQSLLVDSQASKTLPIPTSAPVALSSTGKPVLDAGPVLFWVILVLVVVVGSSAFLLCHRRACRKRIRQKLHLCYPVQTSQPKLELVDSRPRRSSTQLRSGASVTEPVAEERGLMSQPLMETCHSVGAAYLESLPLQDASPAGGPSSPRDLPEPRVSTEHTNNKIEKIYIMKADTVIVGTVKAELPEGRGLAGPAEPELEEELEADHTPHYPEQETEPPLGSCSDVMLSVEEEGKEDPLPTAASGK | – | – | – | – | percentage of EdU-negative (hTERT-HMEC; [1]): 5.63 ± 0.33%; percentage of EdU-negative (hTERT-HMEC; [2]): 5.66 ± 0.2%; percentage of EdU-negative (MCF7; [1]): 24 ± 2.9%; percentage of EdU-negative (MCF7; [2]): 24 ± 0.5%
MAWASRLGLLLALLLPVVGASTPGTVVRLNKAALSYVSEIGKAPLQRALQVTVPHFLDWSGEALQPTRIRILNVHVPRLHLKFIAGFGVRLLAAANFTFKVFRAPEPLELTLPVELLADTRVTQSSIRTPVVSISACSLFSGHANEFDGSNSTSHALLVLVQKHIKAVLSNKLCLSISNLVQGVNVHLGTLIGLNPVGPESQIRYSMVSVPTVTSDYISLEVNAVLFLLGKPIILPTDATPFVLPRHVGTEGSMATVGLSQQLFDSALLLLQKAGALNLDITGQLRSDDNLLNTSALGRLIPEVARQFPEPMPVVLKVRLGATPVAMLHTNNATLRLQPFVEVLATASNSAFQSLFSLDVVVNLRLQLSVSKVKLQGTTSVLGDVQLTVASSNVGFIDTDQVRTLMGTVFEKPLLDHLNALLAMGIALPGVVNLHYVAPEIFVYEGYVVISSGLFYQS [Q8N4F0] | 5.06 ± 0.73 | 15.4 ± 0.54 | 25.8 ± 3.4 | 34.57 ± 0.04 | –
MCSTMSAPTCLAHLPPCFLLLALVLVPSDASGQSSRNDWQVLQPEGPMLVAEGETLLLRCMVVGSCTDGMIKWVKVSTQDQQEIYNFKRGSFPGVMPMIQRTSEPLNCDYSIYIHNVTREHTGTYHCVRFDGLSEHSEMKSDEGTSVLVKGAGDPEPDLWIIQPQELVLGTTGDTVFLNCTVLGDGPPGPIRWFQGAGLSREAIYNFGGISHPKETAVQASNNDFSILLQNVSSEDAGTYYCVKFQRKPNRQYLSGQGTSLKVKAKSTSSKEAEFTSEPATEMSPTGLLVVFAPVVLGLKAITLAALLLALATSRRSPGQEDVKTTGPAGAMNTLAWSKGQE [Q5JXA9] | 5.12 ± 0.92 | 5.14 ± 0.34 | 28 ± 1.8 | 26.5 ± 3.1 | –
MAGPPRLLLLPLLLALARGLPGALAAQEVQQSPHCTTVPVGASVNITCSTSGGLRGIYLRQLGPQPQDIIYYEDGVVPTTDRRFRGRIDFSGSQDNLTITMHRLQLSDTGTYTCQAITEVNVYGSGTLVLVTEEQSQGWHRCSDAPPRASALPAPPTGSALPDPQTASALPDPPAASALPAALAVISFLLGLGLGVACVLARTQIKKLCSWRDKNSAACVVYEDMSHSRCNTLSSPNQYQ | 5.29 ± 0.21 | 4.88 ± 0.12 | 25.1 ± 0.98 | 24.68 ± 0.088 | –
MARPGQRWLGKWLVAMVVWALCRLATPLAKNLEPVSWSSLNPKFLSGKGLVIYPKIGDKLDIICPRAEAGRPYEYYKLYLVRPEQAAACSTVLDPNVLVTCNRPEQEIRFTIKFQEFSPNYMGLEFKKHHDYYITSTSNGSLEGLENREGGVCRTRTMKIIMKVGQDPNAVTPEQLTTSRPSKEADNTVKMATQAPGSRGSLGDSDGKHETVNQEEKSGPGASGGSSGDPDGFFNSKVALFAAVGAGCVIFLLIIIFLTVLLLKLRKRHRKHTQQRAAALSLSTLASPKGGSGTAGTEPSDIIIPLRTTENNYCPHYEKVSGDYGHPVYIVQEMPPQSPANIYYKV | – | – | – | – | percentage of EdU-negative (hTERT-HMEC; [4]): 5.93 ± 0.36%; percentage of EdU-negative (hTERT-HMEC; [5]): 5.52 ± 0.52%; percentage of EdU-negative (MCF7; [4]): 26.6 ± 1.7%; percentage of EdU-negative (MCF7; [5]): 27.1 ± 2.8%
MGVCGYLFLPWKCLVVVSLRLLFLVPTGVPVRSGDATFPKAMDNVTVRQGESATLRCTIDDRVTRVAWLNRSTILYAGNDKWSIDPRVIILVNTPTQYSIMIQNVDVYDEGPYTCSVQTDNHPKTSRVHLIVQVPPQIMNISSDITVNEGSSVTLLCLAIGRPEPTVTWRHLSVKEGQGFVSEDEYLEISDIKRDQSGEYECSALNDVAAPDVRKVKITVNYPPYISKAKNTGVSVGQKGILSCEASAVPMAEFQWFKEETRLATGLDGMRIENKGRMSTLTFFNVSEKDYGNYTCVATNKLGNTNASITLYGPGAVIDGVNSASRALACLWLSGTLLAHFFIKF | 4.81 ± 0.74 | 5.39 ± 1.6 | 23.9 ± 0.79 | 23.8 ± 1.2 | –
MRLTVLCAVCLLPGSLALPLPQEAGGMSELQWEQAQDYLKRFYLYDSETKNANSLEAKLKEMQKFFGLPITGMLNSRVIEIMQKPRCGVPDVAEYSLFPNSPKWTSKVVTYRIVSYTRDLPHITVDRLVSKALNMWGKEIPLHFRKVVWGTADIMIGFARGAHGDSYPFDGPGNTLAHAFAPGTGLGGDAHFDEDERWTDGSSLGINFLYAATHELGHSLGMGHSSDPNAVMYPTYGNGDPQNFKLSQDDIKGIQKLYGKRSNSRKK | – | – | – | – | percentage of EdU-negative (hTERT-HMEC; [6]): 5.71 ± 0.72%; percentage of EdU-negative (hTERT-HMEC; protein concentration 0.055 µM): 15 ± 1.8%; percentage of EdU-negative (MCF7; [6]): 26.4 ± 1.6%; percentage of EdU-negative (MCF7; protein concentration 0.055 µM): 29.9 ± 0.45%
MARSLVCLGVIILLSAFSGPGVRGGPMPKLADRKLCADQECSHPISMAVALQDYMAPDCRFLTIHRGQVVYVFSKLKGRGRLFWGGSVQGDYYGDLAARLGYFPSSIVREDQTLKPGKVDVKTDKWDFYCQ | – | – | – | – | percentage of EdU-negative (hTERT-HMEC; [7]): 5.39 ± 0.091%; percentage of EdU-negative (hTERT-HMEC; [8]): 5.67 ± 0.4%; percentage of EdU-negative (MCF7; [7]): 26.1 ± 1.1%; percentage of EdU-negative (MCF7; [8]): 26.2 ± 1.9%
